Measurements from IntAct's records for PubMed 19494114.

B1: Receptor-type tyrosine-protein phosphatase eta (Homo sapiens), Q12913 (parent)
chain: MKPAAREARLPPRSPGLRWALPLLLLLLRLGQILCAGGTPSPIPDPSVATVATGENGITQISSTAESFHKQNGTGTPQVETNTSEDGESSGANDSLRTPEQGSNGTDGASQKTPSSTGPSPVFDIKAVSISPTNVILTWKSNDTAASEYKYVVKHKMENEKTITVVHQPWCNITGLRPATSYVFSITPGIGNETWGDPRVIKVITEPIPVSDLRVALTGVRKAALSWSNGNGTASCRVLLESIGSHEELTQDSRLQVNISGLKPGVQYNINPYLLQSNKTKGDPLGTEGGLDASNTERSRAGSPTAPVHDESLVGPVDPSSGQQSRDTEVLLVGLEPGTRYNATVYSQAANGTEGQPQAIEFRTNAIQVFDVTAVNISATSLTLIWKVSDNESSSNYTYKIHVAGETDSSNLNVSEPRAVIPGLRSSTFYNITVCPVLGDIEGTPGFLQVHTPPVPVSDFRVTVVSTTEIGLAWSSHDAESFQMHITQEGAGNSRVEITTNQSIIIGGLFPGTKYCFEIVPKGPNGTEGASRTVCNRTVPSAVFDIHVVYVTTTEMWLDWKSPDGASEYVYHLVIESKHGSNHTSTYDKAITLQGLIPGTLYNITISPEVDHVWGDPNSTAQYTRPSNVSNIDVSTNTTAATLSWQNFDDASPTYSYCLLIEKAGNSSNATQVVTDIGITDATVTELIPGSSYTVEIFAQVGDGIKSLEPGRKSFCTDPASMASFDCEVVPKEPALVLKWTCPPGANAGFELEVSSGAWNNATHLESCSSENGTEYRTEVTYLNFSTSYNISITTVSCGKMAAPTRNTCTTGITDPPPPDGSPNITSVSHNSVKVKFSGFEASHGPIKAYAVILTTGEAGHPSADVLKYTYEDFKKGASDTYVTYLIRTEEKGRSQSLSEVLKYEIDVGNESTTLGYYNGKLEPLGSYRACVAGFTNITFHPQNKGLIDGAESYVSFSRYSDAVSLPQDPGVICGAVFGCIFGALVIVTVGGFIFWRKKRKDAKNNEVSFSQIKPKKSKLIRVENFEAYFKKQQADSNCGFAEEYEDLKLVGISQPKYAAELAENRGKNRYNNVLPYDISRVKLSVQTHSTDDYINANYMPGYHSKKDFIATQGPLPNTLKDFWRMVWEKNVYAIIMLTKCVEQGRTKCEEYWPSKQAQDYGDITVAMTSEIVLPEWTIRDFTVKNIQTSESHPLRQFHFTSWPDHGVPDTTDLLINFRYLVRDYMKQSPPESPILVHCSAGVGRTGTFIAIDRLIYQIENENTVDVYGIVYDLRMHRPLMVQTEDQYVFLNQCVLDIVRSQKDSKVDLIYQNTTAMTIYENLAPVTTFGKTNGYIA

Variants of: B1
Settings: with mk03_human MAPK3, P27361
Sequence of mk03_human MAPK3, P27361 (P27361 whole entry): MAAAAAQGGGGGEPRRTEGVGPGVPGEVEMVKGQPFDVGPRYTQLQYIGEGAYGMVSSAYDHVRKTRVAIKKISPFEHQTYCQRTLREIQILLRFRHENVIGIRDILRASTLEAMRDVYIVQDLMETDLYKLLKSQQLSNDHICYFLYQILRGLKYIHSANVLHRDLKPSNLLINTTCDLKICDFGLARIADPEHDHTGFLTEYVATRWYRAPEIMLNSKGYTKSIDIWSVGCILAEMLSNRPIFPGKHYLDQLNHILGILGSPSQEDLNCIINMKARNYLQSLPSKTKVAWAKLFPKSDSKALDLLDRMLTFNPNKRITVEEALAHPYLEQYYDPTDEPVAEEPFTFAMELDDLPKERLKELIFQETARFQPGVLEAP

Row | Variant | effect of a mutation on the interaction
1 | K1031A | decreasing interaction
